B1: plasmin: pure plasmin, serine protease deposited on the array (protein, UniProt P00747 20-580; P00747 581-810, looked up)
Plasmin heavy chain A: EPLDDYVNTQGASLFSVTKKQLGAGSIEECAAKCEEDEEFTCRAFQYHSKEQQCVIMAENRKSSIIIRMRDVVLFEKKVYLSECKTGNGKNYRGTMSKTKNGITCQKWSSTSPHRPRFSPATHPSEGLEENYCRNPDNDPQGPWCYTTDPEKRYDYCDILECEEECMHCSGENYDGKISKTMSGLECQAWDSQSPHAHGYIPSKFPNKNLKKNYCRNPDRELRPWCFTTDPNKRWELCDIPRCTTPPPSSGPTYQCLKGTGENYRGNVAVTVSGHTCQHWSAQTPHTHNRTPENFPCKNLDENYCRNPDGKRAPWCHTTNSQVRWEYCKIPSCDSSPVSTEQLAPTAPPELTPVVQDCYHGDGQSYRGTSSTTTTGKKCQSWSSMTPHRHQKTPENYPNAGLTMNYCRNPDADKGPWCFTTDPSVRWEYCNLKKCSGTEASVVAPPPVVLLPDVETPSEEDCMFGNGKGYRGKRATTVTGTPCQDWAAQEPHRHSIFTPETNPRAGLEKNYCRNPDGDVGGPWCYTTNPRKLYDYCDVPQCAAPSFDCGKPQVEPKKCPGR
Plasmin light chain B: VVGGCVAHPHSWPWQVSLRTRFGMHFCGGTLISPEWVLTAAHCLEKSPRPSSYKVILGAHQEVNLEPHVQEIEVSRLFLEPTRKDIALLKLSSPAVITDKVIPACLPSPNYVVADRTECFITGWGETQGTFGAGLLKEAQLPVIENKVCNRYEFLNGRVQSTELCAGHLAGGTDSCQGDSGGPLVCFEKDKYILQGVTSWGLGCARPNKPGVYVRVSRFVTWIEGVMRNN
modifications: plasmin
notes: pure plasmin, serine protease deposited on the array
B2: tPA: pure tPA delivered by aerosol deposition to a sensing array (protein, UniProt P00750 36-562, looked up)
Tissue-type plasminogen …: SYQVICRDEKTQMIYQQHQSWLRPVLRSNRVEYCWCNSGRAQCHSVPVKSCSEPRCFNGGTCQQALYFSDFVCQCPEGFAGKCCEIDTRATCYEDQGISYRGTWSTAESGAECTNWNSSALAQKPYSGRRPDAIRLGLGNHNYCRNPDRDSKPWCYVFKAGKYSSEFCSTPACSEGNSDCYFGNGSAYRGTHSLTESGASCLPWNSMILIGKVYTAQNPSAQALGLGKHNYCRNPDGDAKPWCHVLKNRRLTWEYCDVPSCSTCGLRQYSQPQFRIKGGLFADIASHPWQAAIFAKHRRSPGERFLCGGILISSCWILSAAHCFQERFPPHHLTVILGRTYRVVPGEEEQKFEVEKYIVHKEFDDDTYDNDIALLQLKSDSSRCAQESSVVRTVCLPPADLQLPDWTECELSGYGKHEALSPFYSERLKEAHVRLYPSSRCTSQHLLNRTVTDNMLCAGDTRSGGPQANLHDACQGDSGGPLVCLNDGRMTLVGIISWGLGCGQKDVPGVYTKVTNYLDWIRDNMRP

Key:
[1] = test system: fluorogenic substrates on the array; test: Microarray assay of diluted recalcified citrated plasma with added plasmin; assay type: biochemical, human
Experimental: (§1) Well characterized for over 30 years, serine proteases of the coagulation pathway in plasma were selected as a system in which to monitor the delivery of complex enzyme fluids to the microassay. Fluorogenic substrates in DMSO/glycerol were assayed to a glass slide.
The microarray detected the modest activation of the coagulation pathway in recalcified diluted plasma due to low level factor Xa and thrombin activity (Butenas, 1997; Rand, 1996). Since corn trypsin inhibitor was not present to inhibit factor XIIa (Rand, 1996), moderate activation of the contact system and kallikrein generation was detected by conversion of the kallikrein substrate.
[…] This plasmin activity was detected by a strong signal in the plasmin substrate spot. […] Plasmin is also a potent activator of factor XU to factor XUa which can in turn convert prekallikrein to kallilkrein.

[2] = Fluorogenic substrate microarray, aerosol deposition of enzyme: boc-VLK-MCA; assay type: biochemical; conditions: pure plasmin 1 μM deposited on the array
[3] = Fluorogenic substrate microarray: plasmin on thrombin and kallikrein substrates; assay type: biochemical; conditions: pure plasmin 1 μM
Experimental: as §1
(§2) After spray application, thrombin caused a 65-fold increase in fluorescence activity after conversion of the boc-VPR-MCA substrate. […] Aerosol deposition of pure tPA (10 μM) to a sensing array caused significant cleavage of the tPA, thrombin and Xa substrates, resulting in fluorescence that was 18- to 20-fold above background.

[4] = Morita, 1977; cited from earlier work
[5] = Fluorogenic substrate microarray: tPA on tPA, thrombin and Xa substrates; assay type: biochemical; conditions: aerosol deposition of pure tPA 10 μM
Experimental: as §1, §2

signal for the boc-VLK-MCA substrate above background [2] | Molecule | signal in the plasmin substrate spot ([1]; plasmin 0.43 μM final concentration added to diluted recalcified citrated plasma) | cleavage of substrates on the array ([1]; plasmin 2.14-1 μM final concentration added to plasma) | activity on the thrombin and kallikrein substrates [3] | reported activity on boc-VPR-MCA and Z-FR-MCA [4] | reported activity on tPA and factor Xa substrates [4] | fluorescence above background from cleavage of the tPA, thrombin and Xa substrates [5]
25 fold | B1 | strong signal | significant cleavage of each substrate | detectable activity | activity | no detectable activity | 
 | B2 |  |  |  |  |  | 18- to 20 fold

Reference: patent publication US7598033B2, “Method and devices for running reactions on a target plate for MALDI mass spectrometry” (University of Pennsylvania, priority 2003, dated 2009)
